According to the supplement of paper PMC12042874:
± gives the uncertainty stated by the source.

Experiment: amyloid nucleation score (Sup35N fusion, yeast selection) (log enrichment); library NNK2; higher = more nucleation; inactive = no reads after selection
How it was run: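 Plasmid inserts were Illumina-sequenced at input and output from psi-negative yeast expressing Sup35N fused to peptides of 20 random codons. The yeast were induced with 100 μM copper sulfate for 24 hours and grown 7 days at 30°C on medium lacking adenine and uracil, and sequences with under 100 input reads were excluded. Nucleation score is the DiMSum log enrichment of output over input reads, centred on the mode score of non-aggregating sequences.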

| Substance | amyloid nucleation score |
| --- | --- |
| LWYGWCKRLYFVRCHYRVSM | -0.543 ± 0.55 |
| LYAVRPLTVGTKCYMMRGLL | -1.59 ± 0.49 |
| LYCQFSYVRCKPGKRSDLGW | 1.88 ± 0.23 |
| LYDFCVSYVSQNGLRLFVRT | -0.727 ± 0.45 |
| LYDIDWRFRHKDAHQCKVDR | -0.184 ± 1.1 |
| LYGGCRKWFTRTCFSFHMYR | 0.562 ± 0.81 |
| LYHETAENSSRTQTTRRWSF | -0.321 ± 1 |
| LYIET | -1.28 ± 0.63 |
| LYIIMMICIQSLFRYRGIKG | -0.975 ± 0.78 |
| LYLMSHTGFLSNTHIRLAPR | -0.291 ± 1.1 |
| LYLTRMFTTNAL | 0.806 ± 0.58 |
| LYLYPAMFVSWLSGLPTRFC | -0.406 ± 1.1 |
| LYMILNGYTLGSCFTVRDSF | 4.99 ± 0.078 |
| LYNEMVRSLVGAICRSRQGY | -0.297 ± 1.1 |
| LYPWRMTCYK | -1.34 ± 0.76 |
| LYQSYHELSFVTVHRSSKVD | 2.45 ± 0.15 |
| LYRLSFSLFWERNRVHSFIR | -0.232 ± 1.1 |
| LYRRFRQRCIRERERLVHGL | 0.01 ± 0.38 |
| LYRVILLSSRHNGSNIWAEF | 0.127 ± 0.74 |
| LYRYSSG | inactive |
| LYSWAFSS | inactive |
| LYVFPCHILDDRCFLCGGWF | -0.353 ± 0.38 |
| MAAVSETHPGAEGSNRVVSE | 3.06 ± 0.07 |
| MAVLEMRDRWCDLLLTTSRV | 0.155 ± 0.21 |
| MCFAHVRNFSEW | 1.47 ± 0.15 |

| Substance | amyloid nucleation score |
| --- | --- |
| MCFFMAREEASRGAKGLAER | 1.66 ± 0.19 |
| MCGSDNYILGLFWVYFMTNF | inactive |
| MCRYCLVWYGFLNYSTLTRG | -1.37 ± 0.62 |
| MCVGNYVLRFLALPPSGCNM | -0.806 ± 0.36 |
| MCWIVTFTRLCWLMFNSERC | inactive |
| MDFSSLWGLHFVLCCVSWGR | 0.256 ± 1 |
| METAPTLNINVSDSQRPNVW | 0.71 ± 0.53 |
| MEVADC | 0.591 ± 0.35 |
| MFIGLLVLRLLFAYQNDKSY | 0.153 ± 0.79 |
| MFSNFLIRKEGRKKVAMVKK | -1.04 ± 0.33 |
| MFSSMSVLCKYILASWASHK | -0.58 ± 0.63 |
| MFTKDISGFLGVLGHVVVLG | -0.237 ± 0.63 |
| MFVRRKSVSMVEYWE | 0.054 ± 0.32 |
| MFYPRSSFSWDFPTFGLSLP | inactive |
| MGGNLCVPRTLYSAIWLLSR | -1.23 ± 0.44 |
| MGLSAVQVFSRRCSFSGKWC | inactive |
| MGQLDGKACSICRSLVIIVY | 2.23 ± 0.073 |
| MGTPLNFGCQY | -1.26 ± 0.48 |
| MGYRFSGDLMEGRSTEWWRA | 0.836 ± 0.47 |
| MHEAH | 0.439 ± 0.46 |
| MHMYMRSGFLLLFVSWVREC | -0.958 ± 0.76 |
| MHPVANSGNSEHMFSMLY | 3.48 ± 0.09 |
| MHSLISELLLPNTIFGSAGI | -0.707 ± 0.76 |
| MIFCCTRK | 8.708 ± 0.078 |
| MIISTVMSGMNANSLVVWAY | 0.375 ± 0.21 |

| Substance | amyloid nucleation score |
| --- | --- |
| MIKHGYQWPCSLCT | 0.219 ± 0.46 |
| MIMEQSNNISNCLFVMQGPK | 7.143 ± 0.07 |
| MIMLDAEGLYIIPRGVSKFL | 1.87 ± 0.11 |
| MINLQYLVGNLAVGL | 1.37 ± 0.14 |
| MIRTHLRRIYNS | -1.26 ± 0.37 |
| MIVNYFWIRCAPLFWQAIPS | 3.63 ± 0.15 |
| MIWNCTVFFLGDGAPLCGLC | 8.5 ± 0.064 |
| MKGEMF | -0.345 ± 0.28 |
| MKNTVE | -0.803 ± 1 |
| MKPAWYIVNEWLSGTRLECM | -0.035 ± 0.49 |
| MKVPVRIRWVPLFSDFTYQV | -0.736 ± 0.36 |
| MKYLIVCDFCGLYSPCGFCF | 7.808 ± 0.037 |
| MLCCLCMMVCDR | 8.673 ± 0.032 |
| MLCRNIHRCKMHREPLGVFH | 0.578 ± 0.81 |
| MLDYFGLWSWARSSNYLEFK | -1.09 ± 0.31 |
| MLLSCYFVVNE | 6.37 ± 0.072 |
| MLMRNFSNSNLLAENFMQMR | 0.138 ± 1.1 |
| MLQYWMPVLGWWAFMRNLAF | 1.71 ± 0.47 |
| MLRLFQYFLGTNFWGHQGFS | -0.724 ± 1.1 |
| MLSENADTRCLRMFVSDCQR | 1.26 ± 0.16 |
| MLSLVMRVGFNCFIT | 0.208 ± 1.1 |
| MLVEMYLFVNLCLYMRMSFR | 0.018 ± 0.5 |
| MLVWTNMFSTLYDISWKAPL | -1.02 ± 0.62 |
| MLWQFKWESGYVTLRARPN | inactive |
| MLYSSR | -1.44 ± 0.44 |

| Substance | amyloid nucleation score |
| --- | --- |
| MMFTSQTGDLLFF | 4.89 ± 0.051 |
| MMNTKFINWDKMLDIGYRAD | 0.877 ± 0.8 |
| MMVGFLCK | 3.91 ± 0.07 |
| MMVYKGMPVLPCEYRVLY | -0.199 ± 0.36 |
| MNDLMYVVLSRCSMIGNCGS | 1.29 ± 0.17 |
| MNLWVMAFR | 6.502 ± 0.065 |
| MNMSEMSAYHFLFSGGSKLR | -0.21 ± 0.44 |
| MNPYLVGPFERVV | 0.061 ± 0.33 |
| MPGYYPMGSL | 0.427 ± 0.74 |
| MPQWKL | -0.205 ± 0.74 |
| MPYTCMGVFVAHMEATE | 0.316 ± 0.4 |
| MQRTIYFS | 0.767 ± 0.58 |
| MRFSCWADIVRGDLIPHFVV | 2.84 ± 0.09 |
| MRHMYRPPIVSLHRVAIGFM | -0.906 ± 0.63 |
| MRRRMQSWANRSLSTGWGMF | -0.091 ± 0.38 |
| MRRSLFMCILVYDSWLYFSV | 3.15 ± 0.17 |
| MRSFGPIFSVLL | -0.067 ± 0.34 |
| MRSRNLLS | inactive |
| MRSTALYDILRRPWFNFSAY | -0.014 ± 0.76 |
| MRWSYFDH | 0.921 ± 0.47 |
| MSFKDNYQPK | -0.707 ± 0.76 |
| MSILESIRTRTRRVKGYLSC | 0.315 ± 0.36 |
| MSILTCVPGTNIINSQW | inactive |
| MSLILRSPLKTWLPLAHTQG | 0.187 ± 0.42 |
| MSLLV | 5.695 ± 0.029 |

| Substance | amyloid nucleation score |
| --- | --- |
| MSLWRVCCFSWPKKVYSNFR | 1.2 ± 0.1 |
| MSPWRDRSRFKIYDGPTWRM | 0.728 ± 0.8 |
| MSPYL | 0.479 ± 0.8 |
| MSSINTRPRNDA | -0.645 ± 0.37 |
| MSSQKWADKVPWEFVCGCFD | 0.01 ± 0.65 |
| MSVLSMVFSGFDPMERFGEL | 0.294 ± 0.8 |
| MSYGNAYNTPKCDKHSVIPY | 0.738 ± 0.37 |
| MTCSSHCGMCIPSIPQVFGA | 1.02 ± 0.4 |
| MTDLLTMVAYRLKGSRVSSM | 0.08 ± 0.37 |
| MTFENFSSSHSWTDLLFLFI | 3.43 ± 0.078 |
| MTGNVYKMIILIYNFFRRS | 2.7 ± 0.069 |
| MTQPEGY | 0.325 ± 0.56 |
| MTRVTYMYVFIYACESRYTH | -0.116 ± 0.22 |
| MTSRVETSKCNCSLQVWRPL | 0.579 ± 0.37 |
| MVFAPIVYEIKRDIKMLFGA | 5.947 ± 0.029 |
| MVFRNNYSEVTTRLAGNGRR | -0.074 ± 1.1 |
| MVINSAWVCENGLSQYFLAK | 4.27 ± 0.075 |
| MVINSFPPGWVRGHMIKSTG | -0.39 ± 0.76 |
| MVIQHIDRPDYWISWGHNKG | 5.112 ± 0.048 |
| MVKLFSLSTS | -0.533 ± 0.2 |
| MVLIYRLCQSLRLRHGVGVK | 4.33 ± 0.1 |
| MVLLCIFQ | 8.273 ± 0.064 |
| MVLLLQASSI | -0.354 ± 0.54 |
| MVPKNFYFRRWLSWLRVRLL | 0.144 ± 0.52 |
| MVVGIAVYRCSFNRTDLFPS | 0.655 ± 0.2 |

| Substance | amyloid nucleation score |
| --- | --- |
| MVVLCHINLYEYGSFNPSST | 6.31 ± 0.077 |
| MVWAQSTASMVLDLVFIAPS | 1.75 ± 0.29 |
| MVYPRYVSDTKQSRLLAGRE | 0.604 ± 0.57 |
| MWVPFASWLCK | -0.08 ± 0.5 |
| MYLVYHYLSVRAFLFMSTMV | -0.39 ± 0.61 |
| MYRRSSWHLWWSKELFDAIY | -0.723 ± 0.79 |
| MYSVMLRTSYCTLARYMVLW | 1.08 ± 0.11 |
| NACYIDFGRTAVSTVLAILY | 3.41 ± 0.09 |
| NADQLLIGELQLTLGLWPIR | 1.14 ± 0.16 |
| NAQSRVLAEETGLSNPPIML | -1.45 ± 0.62 |
| NARVTGVF | inactive |
| NCFRVFNSFSIFGAFRTMDR | 5.22 ± 0.064 |
| NCFSSRGGARTFGIKLIFSV | 0.524 ± 0.51 |
| NCFYALYPSQDWRMTKLELS | -0.106 ± 0.23 |
| NCGLWNISMCPGDNLSSWDG | 7.46 ± 0.039 |
| NCKMVMIGCDRNYL | -1.37 ± 1.1 |
| NCVNPDYGLLQQLSRYLVVC | -0.764 ± 0.64 |
| NCYSRALYSPCSPFLLTN | -1.73 ± 0.41 |
| NDCGSNDRLSNTFFWFLLFG | 0.142 ± 0.65 |
| NDDTDQLSTSSIGRRMRMR | 0.662 ± 0.81 |
| NDIMYSVSSYCWWSFRSSVF | 2.06 ± 0.15 |
| NDMFLSYLHSPWYNVLCDFI | -1.29 ± 0.49 |
| NDMVRAISRKGIVSIHRRTR | 0.724 ± 0.45 |
| NDTSYGAQRRVCSTFQGCVT | 0.211 ± 0.32 |
| NDVGSLWVIADVGIFYVQDK | -0.662 ± 0.61 |

| Substance | amyloid nucleation score |
| --- | --- |
| NDWFCVVY | -1.48 ± 0.42 |
| NEFRDIYGFSVSKLPTGGIC | -1.17 ± 0.41 |
| NEYMYVR | 0.969 ± 0.52 |
| NFAQWW | 0.443 ± 0.8 |
| NFFRAENVYCSMLFSKGWDW | 6.966 ± 0.049 |
| NFIKKGCGKGNLDLFSLRDV | inactive |
| NFILLDLLSLAICASRVLWA | 1.56 ± 0.087 |
| NFLGGLNRFLNCSSM | -0.683 ± 1.1 |
| NFMGIIVLNQ | 3.19 ± 0.09 |
| NFNACIPNKDRSFSNVDVCV | -1.35 ± 1 |
| NFRPCRVLRFGY | 1.03 ± 0.66 |
| NFVYMFVKL | 4.97 ± 0.062 |
| NFYILLATGSFYAVLGCRQY | 2.36 ± 0.12 |
| NGCSFRGNCCDSGERNVVEV | 0.071 ± 0.6 |
| NGDLCILLTWATWGSTE | 0.686 ± 0.33 |
| NGFMVSFV | -1.39 ± 0.41 |
| NGFNYFKMW | -1.65 ± 1.1 |
| NGGPRAYLDIYDLSGVSDRR | 0.487 ± 0.18 |
| NGIQGL | inactive |
| NGMFLRTRCIRVFAVRRMLQ | 1.12 ± 0.26 |
| NGTKTP | 0.568 ± 0.47 |
